Assay results taken from PMC3787022, “Small Angle X-Ray Scattering Studies of Mitochondrial Glutaminase C Reveal Extended Flexible Regions, and Link Oligomeric State with Enzyme Activity” (PLoS ONE, 2013).

Columns and labels:
D3Z7P3 = assay: SAXS; phosphate (Pi) titration 0-100 mM, microfluidic mixing chip, 36 sec mixing time; GACwt constant at 30.7 uM, GACΔC constant at 33.8 uM; 20 mM Tris-HCl, 500 mM NaCl, 0.5 mM TCEP, 1 mM sodium azide; analysed with OLIGOMER; settings: other: SAXS
[1] = biological target: the molecule itself; assay: SEC-MALS; phosphate screen, K2HPO4 0, 25, 50 and 100 mM; protein 5 uM in the peak (injected 70 uM); WTC-030S5 column, 20 mM Tris-HCl pH 8.5, 500 mM NaCl, 23°C
[2] = biological target: the molecule itself; assay: SEC-MALS; protein concentration screen 1.4-9.7 uM, no K2HPO4; WTC-030S5 column, 20 mM Tris-HCl pH 8.5, 500 mM NaCl, 23°C

B1: Glutaminase C wildtype construct (mouse GAC, residues 73-603) (enzyme, UniProt D3Z7P3-2 73-603, looked up)
chain: SSSPSEILQELGKGGTPPQQQQQQQQQPGASPPAAPGPKDSPGETDAFGNSEGKEMVAAGDNKIKQGLLPSLEDLLFYTIAEGQEKIPVHKFITALKSTGLRTSDPRLKECMDMLRLTLQTTSDGVMLDKDLFKKCVQSNIVLLTQAFRRKFVIPDFMSFTSHIDELYESAKKQSGGKVADYIPQLAKFSPDLWGVSVCTVDGQRHSIGDTKVPFCLQSCVKPLKYAIAVNDLGTEYVHRYVGKEPSGLRFNKLFLNEDDKPHNPMVNAGAIVVTSLIKQGVNNAEKFDYVMQFLNKMAGNEYVGFSNATFQSERESGDRNFAIGYYLKEKKCFPEGTDMVGILDFYFQLCSIEVTCESASVMAATLANGGFCPITGERVLSPEAVRNTLSLMHSCGMYDFSGQFAFHVGLPAKSGVAGGILLVVPNVMGMMCWSPPLDKMGNSVKGIHFCHDLVSLCNFHNYDNLRHFAKKLDPRREGGDQRHSFGPLDYESLQQELALKDTVWKKVSPESSDDTSTTVVYRMESLGERS
notes: GAC isoform of 603 residues; also called GACwt; GAC wildtype; source: expressed from a pET28a vector, purified (Ni-column, anion-exchange, gel filtration); not shown: histidine tag, N-terminal, cleaved
D3Z7P3
  volume fraction of octamers at 80 mM Pi: a maximum of 38% at 80 mM Pi
[1]
  stoichiometry N: ~4
[2]
  stoichiometry N: 4
